Assay results taken from patent publication US20090162358A1 (GlaxoSmithKline, published 2009).
Several values for one entry are separate records, joined by “and”; a condition that tells them apart may be missing. Identical values can stand only once. * marks the point of attachment. Biotin = O=C1N[C@H]2[C@H](CS[C@H]2CCCCC(=O)*)N1

Legend:
[1] = target: T1, biotinylated β-amyloid 1-40 (human Aβ1-40 peptide in solution, competition ELISA) (human, UniProt P05067 672-711, biotin, position not stated); assay: competition ELISA: antibody pre-incubated with biotinylated Aβ 1-40, free Aβ captured on immobilised mouse 6F6 (competitor); Exp 2
T1 construct: domain: β-amyloid (1-40)
Procedure: (§1) 6F6c and humanised antibodies H₁₁L2, H11L9, H11L10, H11L12 and H11L13 were assessed for their ability to bind Aβ1-40 peptide in solution and inhibit the interaction of human Aβ1-40 peptide with mouse 6F6 monoclonal antibody in a competition ELISA. A constant concentration of biotinylated β-amyloid 1-40 was pre-incubated with serial diluted amounts of humanised 6F6 antibody variants. The mixture including complexed and free amyloid was then added to wells containing immobilised mouse 6F6 monoclonal antibody and incubated for 15 minutes at room temperature. Plates were washed and the amount of free β-amyloid that was still available for binding the immobilised parental 6F6 monoclonal antibody was then detected using streptavidin-HRP conjugate.

[2] = target: T2, C-terminally truncated β-amyloid peptide lacking residues V40 to G33 (residues 23-32) (UniProt P05067 694-703, not fully specified); assay: SRU BIND biosensor, biotinylated peptides on streptavidin plate
T2 construct: domain: β-amyloid residues 23-32; Stands also for the shorter peptides of the set ('and beyond'); not shown: SGSG linker lengthened to make a 22-mer
T2 peptide (looked up): Biotin-DVGSNKGAII-NH2
From the text: (§2) The minimal binding epitope of the humanised monoclonal antibody H11L9 was fine mapped using SRU BIND plate reader (SRU Biosystems). Three peptide sets were generated, based on an 18 amino acid sequence for fine mapping of the epitope: a) an alanine scanning peptide set for which 10 of the residues 27-37 were replaced consecutively with an alanine residue; b) a set of N-terminally truncated peptides where one residue was removed successively from the N-terminus of the 18-mer peptide starting with residue 23 and c) a set of C-terminally truncated peptides where one residue was removed successively from the C-terminus of the 18-mer peptide starting with residue 40.
(§3) A streptavidin coated biosensor plate (SRU Biosystems) was washed with PBS and spun upside down to remove buffer and then washed with PBS, 0.1% tween 20 and 0.4% acetonitrile and spun upside down to remove residual buffer. Wells were resuspended in 100 ul of PBS, 0.1% tween 20 and 0.4% acetonitrile and read on the SRU plate reader to establish a baseline. […] The plate was then washed with PBS twice and then resuspended in 100 ul of PBS and the baseline re-measured. […] Binding of the antibodies was monitored. Plates were washed twice with PBS and resuspended in 100 ul of PBS, and the plates were re-measured and referenced back to the addition of antibody to look for weak binders that would be removed by the washing step. […]

[3] = target: T3, N-terminally truncated β-amyloid peptide lacking residues D23 to I31 (residues 32-40) (UniProt P05067 703-711, not fully specified); assay: as above
T3 construct: domain: β-amyloid residues 32-40; Stands also for the shorter peptides of the set ('and beyond'); not shown: SGSG linker lengthened to make a 22-mer
T3 peptide (looked up): Biotin-IGLMVGGVV-NH2
From the text: as §2, §3

[4] = target: T4, human β-amyloid 1-40 (human, UniProt P05067 672-711); assay: SPR Biacore T100 at 37 C; antibody captured on anti-human IgG, Aβ 1-40 at 1-256 nM
T4 construct: domain: β-amyloid (1-40); Used in solution over captured antibody (Biacore) or coated on ELISA plates; also called human Aβ peptide (1-40); Aβ peptide (1-40)
Procedure: (§4) Anti-human IgG (Biacore BR-1008-39) was coupled to a CM5 biosensor chip by primary amine coupling. The anti-beta amyloid antibodies were captured on this surface. Beta amyloid (1-40) was then passed over at 256, 64, 16, 4 and 1 nM, with a 0 nM (ie buffer alone passed over the captured antibody surface) used for double referencing. […] The data was analysed using the 1:1 model inherent to the T100. The run was carried out at 25° C. and 37° C. using HBS-EP as the running buffer.
From this panel some constructs were also assessed for binding kinetics at physiological temperature.

[5] = target: T4, human β-amyloid 1-40; assay: SPR Biacore T100; antibody captured on anti-human IgG, Aβ 1-40 at 1-256 nM; 1:1 model
Procedure: as §4

[6] = target: T4, human β-amyloid 1-40; assay: SPR Biacore T100, 25 C; antibody captured on protein A, Aβ 1-40 at 2-256 nM; mean of three experiments
Procedure: The affinity of selected heavy and light chain combinations was determined using a Biacore T100 instrument. Three independent experiments were performed using humanised antibody immobilised via protein A surface Biacore chips and injection of β-amyloid 1-40 peptides. The chimeric molecule of 6F6 served as a reference molecule. For this Protein A was immobilised on a CM5 chip by primary amine coupling in accordance with manufactures recommendations. Anti-β-amyloid antibodies were captured on this surface and after a period of stabilisation human β-amyloid 1-40 was passed over at concentrations 256-2 nM in halving dilutions. A buffer injection over the captured antibody surface was used to double reference the data set in accordance with Biacore best practice. […] The work was carried out in HBS-EP at 25° C. Results are summarised in Table 13 as the mean of all three experiments.

[7] = target: T1, biotinylated β-amyloid 1-40 (human …); assay: competition ELISA: antibody pre-incubated with biotinylated Aβ 1-40, free Aβ captured on immobilised mouse 6F6 (competitor); Exp 1
Procedure: as §1

- IC50 [1]: 0.518 mg/L
- binding result [2]: no binding (tested: 30 ug/ml)
- binding result [3]: no binding (tested: 30 ug/ml)
- Kd [4]: 2.89 nM and 3.11 nM
- Kd [5]: 2.47 nM and 2.46 nM
- Kd [6]: 4.91 nM
- IC50 [7]: 0.588 mg/L
B1: humanised antibody H11L9 (antibody, human IgG1, kappa)
heavy: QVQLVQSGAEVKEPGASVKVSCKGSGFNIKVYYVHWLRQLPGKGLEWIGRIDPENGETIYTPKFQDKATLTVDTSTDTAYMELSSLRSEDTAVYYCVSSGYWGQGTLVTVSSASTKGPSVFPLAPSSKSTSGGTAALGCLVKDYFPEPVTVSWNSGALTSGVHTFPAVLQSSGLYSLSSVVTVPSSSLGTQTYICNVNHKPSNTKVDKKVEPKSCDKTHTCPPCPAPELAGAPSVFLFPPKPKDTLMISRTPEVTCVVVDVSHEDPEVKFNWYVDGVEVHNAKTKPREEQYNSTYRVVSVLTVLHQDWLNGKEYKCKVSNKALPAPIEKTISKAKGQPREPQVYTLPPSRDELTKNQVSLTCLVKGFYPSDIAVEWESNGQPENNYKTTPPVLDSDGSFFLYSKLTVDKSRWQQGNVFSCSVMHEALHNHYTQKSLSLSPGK
light: DIVMTQSPLSNPVTPGEPASISCRSSKSLLHRNGITYLYWYLQKPGQSPQLLIYQMSNLASGVPDRFSSSGSGTDFTLKISRVEAEDVGVYYCAQNLELWTFGQGTKVEIKRTVAAPSVFIFPPSDEQLKSGTASVVCLLNNFYPREAKVQWKVDNALQSGNSQESVTEQDSKDSTYSLSSTLTLSKADYEKHKVYACEVTHQGLSSPVTKSFNRGEC
notes: Human IgG1 Fc mutated heavy chain, human kappa; also called H11L9(sup); H11L9(pur)
